Experimental data taken from patent US20200299367A1 (ARIZONA BOARD OF REGENTS ON BEHALF OF ARIZONA STATE …, published 2020).

Target: T1, bovine serum albumin (bovine, UniProt P02769 25-607)
T1 construct: also called BSA
Assay: AFM single clone screening, phage on mica coated with antigen

T1 sequence (P02769 25-607 limits assumed): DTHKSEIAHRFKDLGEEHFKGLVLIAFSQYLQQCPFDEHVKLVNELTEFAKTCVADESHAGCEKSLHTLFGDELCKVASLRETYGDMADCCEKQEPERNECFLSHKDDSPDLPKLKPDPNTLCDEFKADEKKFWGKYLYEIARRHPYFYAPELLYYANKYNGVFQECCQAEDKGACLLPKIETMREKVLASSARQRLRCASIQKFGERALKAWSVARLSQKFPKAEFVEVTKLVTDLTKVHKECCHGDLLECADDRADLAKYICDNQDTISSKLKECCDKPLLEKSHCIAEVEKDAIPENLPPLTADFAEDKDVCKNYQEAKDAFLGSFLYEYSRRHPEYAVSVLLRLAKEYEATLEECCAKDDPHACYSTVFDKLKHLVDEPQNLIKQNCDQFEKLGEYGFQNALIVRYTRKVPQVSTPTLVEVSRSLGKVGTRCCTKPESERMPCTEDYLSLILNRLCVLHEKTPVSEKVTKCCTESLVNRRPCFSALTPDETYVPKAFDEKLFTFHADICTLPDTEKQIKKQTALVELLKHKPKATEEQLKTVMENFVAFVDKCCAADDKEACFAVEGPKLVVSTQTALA

B1: F9T scFv (scFv)
scFv: QVQLQESGGGVVQPGRSLRLSCAASGFTFSTSGMHWVRQAPGKGLEWVAFILHDGSDKYYADSVKGRFTISRDNSKNTLYLQMNSLRAEDTAIYYCAKSQRELLGAEYLQNWGQGTLVTVSSGGGGSGGGGSGGGGSQSALTQPASVSGSPGQSITISCTGTSSDVGGYKYVSWYQQHPGKAPKVMIYDVSNRPSGVSNRFSGSKSGNTASLTISGLQAEDEADYYCSSYTSSSTLVFGGGTKVTVLGAAAHHHHHHGAAEQKLISEED
notes: Expressed from pIT2 with a hexahistidine tag and a c-myc tag; the format is named under assay; also called F9T nanobody; F9 (clone before frame-shift repair)
binding result: no binding

B2: D4G scFv (scFv)
scFv: QVQLVASGGDLIQPGGSLRLSCAASGFTFNNYWMTWVRQAPGKGLEWVANIKQDGGEKYYVDSVKGRFTISRDNAKTSLYLQMNSLRAEDTAVYYCAKESYSTGWFDHWGQGTLVTVSSGGGGSGGGGSGGGGSNFMLTQDPAVSVALGQTVRITCQGDSLRKYYTSWYQQKPGQAPLLVMYAKNNRPSGIPDRFSGSSSGNTASLTITGAQAEDEADYYCDSRDSSGDHWVFGGGTKLTVLGAAAEQKLISEEDLNGAA
notes: also called D4 (clone before frame-shift repair)
binding result: no binding

B3: G12C scFv (scFv)
scFv: RVQLVESGAEVTKPGASVRVSCKASGYTFSRYDINWVRQASGQGLEWMGWINPNSGNTGYAQKFQGRVTMTRNISITTAYMELSSLRSEDTAVYYCARGLPEFDPWGQGTLVTVSSGGGGSGGGGSGGGGSHVILTQDPAVSVALGQTVRITCQGDSLRSYYASWYQQKPGQAPVLVIYGKNNRPSGIPDRFSGSSSGNTASLTITGAQAEDEADFYCNSRDSSGTHLEVFGGGTKVTVLGAAAEQKLISEEDLNGAA
notes: also called G12 (clone before frame-shift repair)
binding result: no binding
